Measurements: article doi:10.1101/2022.03.30.486445 (bioRxiv, 2022)
Values belong to the binder of their own block, whether it stands above or below them.

Key:
His6-EB1-CyPet = biological target: T1, His6-EB1-CyPet (human, UniProt Q15691 1-268); assay: FRET or BRET
T1 sequence: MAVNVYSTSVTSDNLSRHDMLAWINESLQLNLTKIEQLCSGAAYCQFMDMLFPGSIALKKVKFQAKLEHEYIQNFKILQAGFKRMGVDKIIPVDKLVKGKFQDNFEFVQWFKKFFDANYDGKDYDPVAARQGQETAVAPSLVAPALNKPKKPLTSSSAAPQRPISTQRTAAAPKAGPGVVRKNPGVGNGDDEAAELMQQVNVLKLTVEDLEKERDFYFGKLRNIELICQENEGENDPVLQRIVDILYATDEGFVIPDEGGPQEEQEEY

[1] = biological target: doubly stabilized microtubules (GMPCPP and paclitaxel) (UniProt Q6B856 1-445); assay: co-sedimentation
[2] = biological target: GMPCPP-stabilized HyLite 647/biotin-labeled microtubules (bovine) (UniProt Q6B856); assay: single-molecule TIRF microscopy

- binding result (His6-EB1-CyPet): binds
- fold increase in the Kd for MTs with importin α/β against without [1]: 9 fold
B1: YPet-Kif18B(605-828)-His6 (domain or fragment)
chain: TRTMARRLSGPLHTLGIPPGPNCTPAQGSRWPMEKKRRRPSALEADSPMAPKRGTKRQRQSFLPCLRRGSLPDTQPSQGPSTPKGERASSPCHSPRVCPATVIKSRVPLGPSAMQNCSTPLALPTRDLNATFDLSEEPPSKPSFHECIGWDKIPQELSRLDQPFIPRAPVPLFTMKGPKPTSSLPGTSACKKKRVASSSVSHGRSRIARLPSSTLKRPAGPLVL

- binding result (His6-EB1-CyPet): binds
- fold increase in the Kd for MT binding relative to YPet-Kif18B(605-828) [1]: ~2 fold
B2: YPet-Kif18B(605-828)-NLS1/2 (domain or fragment)
chain: TRTMARRLSGPLHTLGIPPGPNCTPAQGSRWPMEAAARRPSALEADSPMAPAAGTKRQRQSFLPCLRRGSLPDTQPSQGPSTPKGERASSPCHSPRVCPATVIKSRVPLGPSAMQNCSTPLALPTRDLNATFDLSEEPPSKPSFHECIGWDKIPQELSRLDQPFIPRAPVPLFTMKGPKPTSSLPGTSACAAAAVASSSVSHGRSRIARLPSSTLKRPAGPLVL

- binding result (His6-EB1-CyPet): binds
B3: YPet-Kif18B(708-828)-His6 (domain or fragment)
chain: KSRVPLGPSAMQNCSTPLALPTRDLNATFDLSEEPPSKPSFHECIGWDKIPQELSRLDQPFIPRAPVPLFTMKGPKPTSSLPGTSACKKKRVASSSVSHGRSRIARLPSSTLKRPAGPLVL

- binding result (His6-EB1-CyPet): binds
B4: YPet-Kif18B(708-828) E2 (domain or fragment)
chain: KSRVPLGPSAMQNCSTPLALPTRDLNATFDLSEEPPSKPSFHECIGWDKIPQELSRLDQPFIPRAPVPLFTMKGPKPTSSNNGTSACKKKRVASSSVSHGRSRIARLPSSTLKRPAGPLVL

- binding result (His6-EB1-CyPet): binds
B5: YPet-Kif18B(605-707)-His6 (domain or fragment)
chain: TRTMARRLSGPLHTLGIPPGPNCTPAQGSRWPMEKKRRRPSALEADSPMAPKRGTKRQRQSFLPCLRRGSLPDTQPSQGPSTPKGERASSPCHSPRVCPATVI

- dwell time at MT plus ends [2]: 5.56 s
- dwell time at MT plus ends, with importin α/β [2]: 5.39 s
- dwell time on the MT lattice [2]: 1.77 s
- dwell time on the MT lattice, with importin α/β [2]: 2.3 s
- on-rate on MTs (landing events per MT length and time) [2]: 0.26 µm·s^-1
- on-rate on MTs (landing events per MT length and time), with importin α/β [2]: 0.35 µm·s^-1
B6: GFP-Kif18B (full-length human Kif18B N-terminally tagged with EGFP) (natural protein)
chain: MAVEDSTLQVVVRVRPPTPRELDSQRRPVVQVVDERVLVFNPEEPDGGFPGLKWGGTHDGPKKKGKDLTFVFDRVFGEAATQQDVFQHTTHSVLDSFLQGYNCSVFAYGATGAGKTHTMLGREGDPGIMYLTTVELYRRLEARQQEKHFEVLISYQEVYNEQIHDLLEPKGPLAIREDPDKGVVVQGLSFHQPASAEQLLEILTRGNRNRTQHPTDANATSSRSHAIFQIFVKQQDRVPGLTQAVQVAKMSLIDLAGSERASSTHAKGERLREGANINRSLLALINVLNALADAKGRKTHVPYRDSKLTRLLKDSLGGNCRTVMIAAISPSSLTYEDTYNTLKYADRAKEIRLSLKSNVTSLDCHISQYATICQQLQAEVAALRKKLQVYEGGGQPPPQDLPGSPKSGPPPEHLPSSPLPPHPPSQPCTPELPAGPRALQEESLGMEAQVERAMEGNSSDQEQSPEDEDEGPAEEVPTQMPEQNPTHALPESPRLTLQPKPVVGHFSARELDGDRSKQLALKVLCVAQRQYSLLQAANLLTPDMITEFETLQQLVQEEKIEPGAEALRTSGLARGAPLAQELCSESIPVPSPLCPEPPGYTGPVTRTMARRLSGPLHTLGIPPGPNCTPAQGSRWPMEKKRRRPSALEADSPMAPKRGTKRQRQSFLPCLRRGSLPDTQPSQGPSTPKGERASSPCHSPRVCPATVIKSRVPLGPSAMQNCSTPLALPTRDLNATFDLSEEPPSKPSFHECIGWDKIPQELSRLDQPFIPRAPVPLFTMKGPKPTSSLPGTSACKKKRVASSSVSHGRSRIARLPSSTLKRPAGPLVLPGDWH
